In publication doi:10.1101/2023.01.23.525297:
Like-named read-outs stand apart in the source and are kept apart here.

Legend:
[1] = biological target: noumeavirus NMV_189 (noumeavirus)
[2] = biological target: noumeavirus NMV_189 (noumeavirus); assay: crystal structure
[3] = biological target: zamilon vitis Zav_19 (zamilon vitis virophage)
[4] = biological target: zamilon vitis Zav_19 (zamilon vitis virophage); assay: crystal structure

Substance	stoichiometry N [1]	stoichiometry N [2]	stoichiometry N [3]	stoichiometry N [4]
noumeavirus NMV_189 (natural protein)	3	3	–	–
zamilon vitis Zav_19 (natural protein)	–	–	3	3
